From article PMC8453484

Key:
[1] = target: HECT domain of HUWE1 (residues 3993-4374), wild type (human) (UniProt Q7Z6Z7); assay: covalent labelling with an activity-based probe (SDS-PAGE, Coomassie); 10 μM E3 and 100 μM Ub-Prg in 50 mM HEPES, 100 mM NaCl, pH 8.0 at 30 °C, quenched with SDS loading dye; only the covalent (vinyl thioether) product is seen
[2] = target: HECT domain of NEDD4-1 (514-900) (UniProt P46934); assay: as above
UniProt P46934, sequence (P46934 933-1319): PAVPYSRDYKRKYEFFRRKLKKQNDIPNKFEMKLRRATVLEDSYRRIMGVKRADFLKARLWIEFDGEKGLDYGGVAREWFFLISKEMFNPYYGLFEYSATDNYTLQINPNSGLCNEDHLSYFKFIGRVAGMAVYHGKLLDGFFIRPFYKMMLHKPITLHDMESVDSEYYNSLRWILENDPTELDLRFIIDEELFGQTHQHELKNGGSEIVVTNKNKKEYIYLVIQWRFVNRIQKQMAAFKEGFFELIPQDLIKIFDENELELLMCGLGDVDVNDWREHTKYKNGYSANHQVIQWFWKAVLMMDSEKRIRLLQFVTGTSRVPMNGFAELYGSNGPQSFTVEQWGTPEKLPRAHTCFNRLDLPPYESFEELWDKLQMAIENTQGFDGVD

UniProt Q7Z6Z7, sequence (Q7Z6Z7 3993-4374): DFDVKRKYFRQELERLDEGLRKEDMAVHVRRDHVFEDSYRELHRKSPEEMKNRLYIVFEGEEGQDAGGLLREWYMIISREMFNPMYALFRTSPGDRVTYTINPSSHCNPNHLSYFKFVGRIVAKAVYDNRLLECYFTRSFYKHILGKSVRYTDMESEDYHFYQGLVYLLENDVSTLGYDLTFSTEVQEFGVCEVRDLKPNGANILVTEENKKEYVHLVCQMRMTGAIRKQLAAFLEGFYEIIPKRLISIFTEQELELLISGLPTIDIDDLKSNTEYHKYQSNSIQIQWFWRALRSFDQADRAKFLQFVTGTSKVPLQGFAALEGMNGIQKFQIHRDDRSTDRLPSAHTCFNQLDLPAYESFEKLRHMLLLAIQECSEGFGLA

- stoichiometry N [1]: 1
- stoichiometry N [2]: 1
Substance: ubiquitin-propargylamine
